According to patent US20160215297:

Experiments:
Experiment in all cases: cell_activity
[1] = tested on: Il2rg TALEN left (synthetic construct); conditions: pair with TALEN right; mRNA electroporated into rat zygotes, 3/17 offspring; Surveyor assay positive in rat fibroblasts
[2] = tested on: Il2rg TALEN right (synthetic construct); conditions: pair with TALEN left; mRNA electroporated into rat zygotes, 3/17 offspring; Surveyor assay positive in rat fibroblasts
[3] = tested on: Il2rg ZFN left (synthetic construct); conditions: pair with ZFN right; mRNA electroporated into rat zygotes, 3/4 offspring; Surveyor assay positive in rat fibroblasts; 37% and 73% in Tests 5-1 and 5-2
[4] = tested on: Il2rg ZFN right (synthetic construct); conditions: pair with ZFN left; mRNA electroporated into rat zygotes, 3/4 offspring; Surveyor assay positive in rat fibroblasts; 37% and 73% in Tests 5-1 and 5-2

In the case of “TCCCAGAGGTTCAATGCT (double strand) [Il2rg TALEN left binding site]”, the activity (% mutant offspring) [1] was 18.

Work on “TCCAAGTGCAATTCATATACT (double strand) [Il2rg TALEN right binding site]” yielded an activity (% mutant offspring) [2] of 18.

Work on “GCATAGTGAGGTTGG (double strand) [Il2rg ZFN left binding site]” yielded an activity (% mutant offspring) [3] of 75.

Work on “GGTATGAGAAGGGGG (double strand) [Il2rg ZFN right binding site]” yielded an activity (% mutant offspring) [4] of 75.
